The target in experiment [1] is A. fulgidus HypA, tag-free (Archaeoglobus fulgidus) (UniProt O28904). The experiment is described as follows: SEC-MALS; equimolar AfHypA and AfHypB preloaded with GDP (monomeric form); Superdex-75 HR10/30, 50 mM Tris pH 7.5, 0.2 M NaCl, 1 mM TCEP, room temperature; peaks checked by SDS-PAGE. In general terms: Size exclusion chromatography separates by hydrodynamic size, large species first.

Experiment [2] has as its target A. fulgidus HypB, tag-free (Archaeoglobus fulgidus). The experiment can be described thus: SEC-MALS; AfHypB (0.5 mM) preloaded with 5 mM GMPPNP and 1 mM NiCl2, excess removed; Superdex-75 HR10/30, 50 mM Tris pH 7.5, 0.2 M NaCl, 5 mM MgCl2, 1 mM TCEP.

These results are taken from publication PMC3287977.

A word on the stoichiometry N: it is a count of units in the complex or per binding partner.

UniProt O28904, sequence (O28904 whole entry): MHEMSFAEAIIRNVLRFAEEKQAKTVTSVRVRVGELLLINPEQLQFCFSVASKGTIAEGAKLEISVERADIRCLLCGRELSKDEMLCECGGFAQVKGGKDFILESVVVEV

Regarding “A. fulgidus HypB, tag-free (natural protein)”, the stoichiometry N in experiment [1] came to 1; in experiment [2] it was 2.
